Assay results as given in the supplement of paper PMC9112550, “Optimization of the antimicrobial peptide Bac7 by deep mutational scanning” (BMC Biology, 2022).

Tested on: Escherichia coli TOP10
Assay: shrunken log2 fold change of peptide-encoding DNA abundance (4.5 h post-induction vs induction); higher = less antimicrobial activity (less host growth inhibition)
Details: time post-induction: 4.5 h; library: site-saturation at positions 5, 18, 19, 20
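Further: peptides expressed intracellularly from a pBAD plasmid library in pooled LB shake-flask culture, induced with 0.3% L-arabinose, DNA abundance read by NGS, three biological replicates, DESeq2 with apeglm shrinkage.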

Sequence	shrunken log2 fold change
RRIRFRPPRLPRPRPRPFKCPRP	-2.13
RRIRLRPPRLPRPRPRPHHHPRP	-0.6
RRIRHRPPRLPRPRPRPPHQPRP	-0.151
RRIRWRPPRLPRPRPRPSEPPRP	-0.266
RRIRPRPPRLPRPRPRPEDLPRP	0.0558
RRIRYRPPRLPRPRPRPHEPPRP	-0.133
RRIRKRPPRLPRPRPRPINWPRP	0.0577
RRIRCRPPRLPRPRPRPATQPRP	0.262
RRIRDRPPRLPRPRPRPSVCPRP	0.294
RRIRERPPRLPRPRPRPEPWPRP	0.0721
RRIRDRPPRLPRPRPRPKWRPRP	0.344
RRIRIRPPRLPRPRPRPRGNPRP	-0.0419
RRIRSRPPRLPRPRPRPGWWPRP	4.72
RRIRDRPPRLPRPRPRPGGQPRP	0.211
RRIRIRPPRLPRPRPRPHKTPRP	-0.000475
RRIRLRPPRLPRPRPRPSVYPRP	-0.584
RRIRMRPPRLPRPRPRPGHYPRP	-0.196
RRIRCRPPRLPRPRPRPNLLPRP	-0.572
RRIRERPPRLPRPRPRPSFHPRP	-0.549
RRIRGRPPRLPRPRPRPTHNPRP	0.443
RRIRMRPPRLPRPRPRPAFNPRP	0.144
RRIRFRPPRLPRPRPRPRSTPRP	0.421
RRIRTRPPRLPRPRPRPPHHPRP	-0.149

Sequence	shrunken log2 fold change
RRIRMRPPRLPRPRPRPAERPRP	0.385
RRIRMRPPRLPRPRPRPHIFPRP	-0.268
RRIRKRPPRLPRPRPRPKNEPRP	0.345
RRIRTRPPRLPRPRPRPEEAPRP	-0.0948
RRIRPRPPRLPRPRPRPYSQPRP	-1.06
RRIRWRPPRLPRPRPRPSYYPRP	-0.292
RRIRVRPPRLPRPRPRPSHKPRP	-0.24
RRIRLRPPRLPRPRPRPACVPRP	0.131
RRIRIRPPRLPRPRPRPKHAPRP	-0.126
RRIRFRPPRLPRPRPRPYCMPRP	-0.929
RRIRPRPPRLPRPRPRPEWWPRP	0.0468
RRIRFRPPRLPRPRPRPYPPPRP	-0.665
RRIRNRPPRLPRPRPRPTWDPRP	-0.0897
RRIRMRPPRLPRPRPRPGCNPRP	0.00293
RRIRTRPPRLPRPRPRPTKTPRP	0.0558
RRIRRRPPRLPRPRPRPMFNPRP	-0.146
RRIRTRPPRLPRPRPRPDCDPRP	0.209
RRIRKRPPRLPRPRPRPTFNPRP	-0.344
RRIRHRPPRLPRPRPRPLWPPRP	0.27
RRIRMRPPRLPRPRPRPWFKPRP	-0.665
RRIRHRPPRLPRPRPRPDLYPRP	-0.243
RRIRTRPPRLPRPRPRPTNSPRP	-0.334
RRIRIRPPRLPRPRPRPDNEPRP	-0.117

Sequence	shrunken log2 fold change
RRIRQRPPRLPRPRPRPWAFPRP	-0.000467
RRIRRRPPRLPRPRPRPFLCPRP	0.219
RRIRIRPPRLPRPRPRPGSKPRP	-0.0906
RRIRCRPPRLPRPRPRPGVVPRP	0.147
RRIRERPPRLPRPRPRPMTEPRP	-0.116
RRIRQRPPRLPRPRPRPYETPRP	-0.427
RRIRQRPPRLPRPRPRPSKNPRP	0.0658
RRIRGRPPRLPRPRPRPCGQPRP	0.142
RRIRKRPPRLPRPRPRPPLGPRP	0.668
RRIRLRPPRLPRPRPRPQCYPRP	-0.172
RRIRVRPPRLPRPRPRPPRKPRP	0.482
RRIRYRPPRLPRPRPRPVPVPRP	-0.24
RRIRERPPRLPRPRPRPMDYPRP	-0.214
RRIRARPPRLPRPRPRPLGCPRP	0.904
RRIRLRPPRLPRPRPRPSMHPRP	-0.489
RRIRHRPPRLPRPRPRPAWPPRP	0.613
RRIRYRPPRLPRPRPRPALFPRP	-0.0533
RRIRNRPPRLPRPRPRPASNPRP	-0.065
RRIRFRPPRLPRPRPRPRGLPRP	-0.0929
RRIRDRPPRLPRPRPRPTDSPRP	-0.0622
RRIRIRPPRLPRPRPRPRPTPRP	0.152
RRIRCRPPRLPRPRPRPAFWPRP	0.232
RRIRHRPPRLPRPRPRPTMNPRP	-0.173

Sequence	shrunken log2 fold change
RRIRRRPPRLPRPRPRPEMIPRP	-0.00643
RRIRQRPPRLPRPRPRPEEAPRP	0.188
RRIRPRPPRLPRPRPRPAANPRP	0.17
RRIRSRPPRLPRPRPRPEMRPRP	0.84
RRIRPRPPRLPRPRPRPMQLPRP	0.406
RRIRCRPPRLPRPRPRPKDRPRP	-0.0193
RRIRNRPPRLPRPRPRPHSQPRP	-0.392
RRIRSRPPRLPRPRPRPWVSPRP	-0.203
RRIRGRPPRLPRPRPRPNPCPRP	0.102
RRIRPRPPRLPRPRPRPMLWPRP	0.172
RRIRIRPPRLPRPRPRPKNEPRP	-0.14
RRIRWRPPRLPRPRPRPWCIPRP	-0.225
RRIRYRPPRLPRPRPRPGCCPRP	-0.309
RRIRKRPPRLPRPRPRPIANPRP	0.339
RRIRNRPPRLPRPRPRPDAQPRP	-0.173
RRIRMRPPRLPRPRPRPMPDPRP	0.716
RRIRSRPPRLPRPRPRPMVNPRP	0.00321
RRIRTRPPRLPRPRPRPWRRPRP	0.496
RRIRWRPPRLPRPRPRPTMLPRP	0.101
RRIRRRPPRLPRPRPRPPESPRP	0.26
RRIRQRPPRLPRPRPRPHMDPRP	-1.07
RRIRTRPPRLPRPRPRPVECPRP	0.0216
